Source: IntAct's records for PubMed 31515488

B1: Synaptotagmin-like protein 5 (Homo sapiens), Q8TDW5 (parent)
chain: MSKNSEFINLSFLLDHEKEMILGVLKRDEYLKKVEDKRIRKLKNELLEAKRRSGKTQQEASRVCVHCHRNLGLIFDRGDPCQACSLRVCRECRVAGPNGSWKCTVCDKIAQLRIITGEWFFEEKAKRFKQVNVLGTDVVRQSILRRSPGAEEVQSQEQTRQDAEKSDTSPVAGKKASHDGPKRKGFLLSKFRSATRGEIITPKTDTGRSYSLDLDGQHFRSLKSPPGSDRGSTGSSDLNDQEPGPRTPKSSRSNGVTPGTQSSPAPSTRTVTSVISREYGFENSMDLAAIEGTSQELTKSHRRNTSGTPSIAVSGTSLSSDQSRSELDLSESFTEDSEDTVSIRSKSVPGALDKDSLEETEESIDALVSSQLSTNTHRLASGLSTTSLNSMMSVYSETGDYGNVKVSGEILLHISYCYKTGGLYIFVKNCRNLAIGDEKKQRTDAYVKSYLLPDKSRNNKRKTKIRTGTNPEFNETLKYTISHTQLETRTLQLSVWHYDRFGRNSFLGEVEIPFDSWNFENPTDEWFVLQPKVEFAPDIGLQYKGELTVVLRYIPPEENLMLPPEQLQGNKTFKKGKKKESPVISGGILEVFIKEAKNLTAVKSGGTSDSFVKGYLLPDDSKATKHKTLVIKKSVNPQWNHTFMFSGIHPQDIKNVCLELTIWDKEAFSSNIFLGGVRLNSGSGVSHGKNVDWMDSQGEEQRLWQKMANNPGTPFEGVLMLRSSMGKCRL
partner: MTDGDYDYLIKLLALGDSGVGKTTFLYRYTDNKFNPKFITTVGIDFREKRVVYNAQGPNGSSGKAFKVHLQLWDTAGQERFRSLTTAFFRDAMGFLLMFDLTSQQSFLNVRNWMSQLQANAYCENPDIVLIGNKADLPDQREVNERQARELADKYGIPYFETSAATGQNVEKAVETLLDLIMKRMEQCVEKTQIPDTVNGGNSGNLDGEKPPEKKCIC
B2: 1-phosphatidylinositol 4,5-bisphosphate phosphodiesterase delta-4 (Homo sapiens), Q9BRC7 (parent)
chain: MASLLQDQLTTDQDLLLMQEGMPMRKVRSKSWKKLRYFRLQNDGMTVWHARQARGSAKPSFSISDVETIRNGHDSELLRSLAEELPLEQGFTIVFHGRRSNLDLMANSVEEAQIWMRGLQLLVDLVTSMDHQERLDQWLSDWFQRGDKNQDGKMSFQEVQRLLHLMNVEMDQEYAFSLFQAADTSQSGTLEGEEFVQFYKALTKRAEVQELFESFSADGQKLTLLEFLDFLQEEQKERDCTSELALELIDRYEPSDSGKLRHVLSMDGFLSYLCSKDGDIFNPACLPIYQDMTQPLNHYFICSSHNTYLVGDQLCGQSSVEGYIRALKRGCRCVEVDVWDGPSGEPVVYHGHTLTSRILFKDVVATVAQYAFQTSDYPVILSLETHCSWEQQQTMARHLTEILGEQLLSTTLDGVLPTQLPSPEELRRKILVKGKKLTLEEDLEYEEEEAEPELEESELALESQFETEPEPQEQNLQNKDKKKKSKPILCPALSSLVIYLKSVSFRSFTHSKEHYHFYEISSFSETKAKRLIKEAGNEFVQHNTWQLSRVYPSGLRTDSSNYNPQELWNAGCQMVAMNMQTAGLEMDICDGHFRQNGGCGYVLKPDFLRDIQSSFHPEKPISPFKAQTLLIQVISGQQLPKVDKTKEGSIVDPLVKVQIFGVRLDTARQETNYVENNGFNPYWGQTLCFRVLVPELAMLRFVVMDYDWKSRNDFIGQYTLPWTCMQQGYRHIHLLSKDGISLRPASIFVYICIQEGLEGDES
partner: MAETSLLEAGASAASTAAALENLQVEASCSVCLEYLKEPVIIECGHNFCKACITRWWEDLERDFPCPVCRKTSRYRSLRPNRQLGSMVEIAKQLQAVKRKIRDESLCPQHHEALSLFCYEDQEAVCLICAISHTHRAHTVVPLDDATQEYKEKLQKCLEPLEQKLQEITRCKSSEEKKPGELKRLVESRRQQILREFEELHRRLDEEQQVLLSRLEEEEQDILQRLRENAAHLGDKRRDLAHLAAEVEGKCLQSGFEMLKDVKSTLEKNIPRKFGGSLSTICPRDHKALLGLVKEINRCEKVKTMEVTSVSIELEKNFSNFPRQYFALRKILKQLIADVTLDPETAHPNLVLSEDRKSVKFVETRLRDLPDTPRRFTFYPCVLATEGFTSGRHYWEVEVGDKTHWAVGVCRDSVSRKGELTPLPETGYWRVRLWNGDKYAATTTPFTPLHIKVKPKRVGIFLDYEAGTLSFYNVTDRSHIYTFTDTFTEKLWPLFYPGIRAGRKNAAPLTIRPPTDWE
B3: Zinc finger protein 581 (Homo sapiens), Q9P0T4 (parent)
chain: MLVLPSPCPQPLAFSSVETMEGPPRRTCRSPEPGPSSSIGSPQASSPPRPNHYLLIDTQGVPYTVLVDEESQREPGASGAPGQKKCYSCPVCSRVFEYMSYLQRHSITHSEVKPFECDICGKAFKRASHLARHHSIHLAGGGRPHGCPLCPRRFRDAGELAQHSRVHSGERPFQCPHCPRRFMEQNTLQKHTRWKHP
partner: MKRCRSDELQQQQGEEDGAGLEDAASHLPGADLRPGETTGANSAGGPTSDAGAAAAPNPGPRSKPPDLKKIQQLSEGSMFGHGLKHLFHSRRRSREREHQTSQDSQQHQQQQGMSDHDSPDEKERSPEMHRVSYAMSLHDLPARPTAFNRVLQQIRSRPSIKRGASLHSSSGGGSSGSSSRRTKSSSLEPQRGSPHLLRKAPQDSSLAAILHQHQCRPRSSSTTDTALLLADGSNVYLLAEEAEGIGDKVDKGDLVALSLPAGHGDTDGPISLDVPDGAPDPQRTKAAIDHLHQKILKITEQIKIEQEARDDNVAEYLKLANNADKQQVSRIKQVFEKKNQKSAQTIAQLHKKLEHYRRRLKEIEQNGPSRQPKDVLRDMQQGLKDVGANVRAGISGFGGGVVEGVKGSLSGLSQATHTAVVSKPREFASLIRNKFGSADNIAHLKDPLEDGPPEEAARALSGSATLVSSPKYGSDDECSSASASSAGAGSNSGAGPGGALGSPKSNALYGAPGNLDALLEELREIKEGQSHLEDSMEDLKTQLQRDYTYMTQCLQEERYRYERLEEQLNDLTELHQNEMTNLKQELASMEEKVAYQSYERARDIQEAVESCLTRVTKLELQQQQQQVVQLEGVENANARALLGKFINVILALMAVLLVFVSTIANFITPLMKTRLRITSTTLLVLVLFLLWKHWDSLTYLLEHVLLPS
B4: Microtubule-associated protein RP/EB family member 1 (Homo sapiens), Q15691 (parent)
chain: MAVNVYSTSVTSDNLSRHDMLAWINESLQLNLTKIEQLCSGAAYCQFMDMLFPGSIALKKVKFQAKLEHEYIQNFKILQAGFKRMGVDKIIPVDKLVKGKFQDNFEFVQWFKKFFDANYDGKDYDPVAARQGQETAVAPSLVAPALNKPKKPLTSSSAAPQRPISTQRTAAAPKAGPGVVRKNPGVGNGDDEAAELMQQVNVLKLTVEDLEKERDFYFGKLRNIELICQENEGENDPVLQRIVDILYATDEGFVIPDEGGPQEEQEEY

Variants of: B1
Conditions: with rb27b_human RAB27B

Variant	effect of a mutation on the interaction
R160H	with no effect

Variants of: B2
Conditions: with tri39_human TRIM39, Q9HCM9

Variant	effect of a mutation on the interaction
N475K	with no effect

Variants of: B3
Conditions: with tmcc2_human TMCC2, O75069

Variant	effect of a mutation on the interaction
MLVLPSPCPQPLAFSSVETMEGPPRRTCRSPAPGPSSSIGSPQASSPPRPNHYLLIDTQGVPYTVLVDEESQREPGASGAPGQKKCYSCPVCSRVFEYMSYLQRHSITHSEVKPFECDICGKAFKRASHLARHHSIHLAGGGRPHGCPLCPRRFRDAGELAQHSRVHSGERPFQCPHCPRRFMEQNTLQKHTRWKHP	with no effect
MLVLPSPCPQPLAFSSVETMEGPPRRTCRSPEPGPSSSIGSPQASSPPRPNHYLLIDTQGVPYTVLVDEESQREPGASGAPGQKKCYSCPVCSRVFEYMSYLQRHSITHSEVKPFECDICGKAFKRASHLARHHSIHLAGGGWPHGCPLCPRRFRDAGELAQHSRVHSGERPFQCPHCPRRFMEQNTLQKHTRWKHP	with no effect

Variants of: B4
Conditions: with mare3_human MAPRE3, Q9UPY8
Sequence of mare3_human MAPRE3, Q9UPY8 (Q9UPY8 whole entry): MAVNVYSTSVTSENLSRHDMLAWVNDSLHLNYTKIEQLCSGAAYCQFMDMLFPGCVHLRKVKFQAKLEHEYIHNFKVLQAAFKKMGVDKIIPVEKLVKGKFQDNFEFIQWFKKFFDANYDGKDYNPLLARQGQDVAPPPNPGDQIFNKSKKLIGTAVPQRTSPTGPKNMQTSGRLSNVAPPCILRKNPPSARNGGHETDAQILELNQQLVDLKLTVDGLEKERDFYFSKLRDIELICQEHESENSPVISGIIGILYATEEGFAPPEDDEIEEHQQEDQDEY

Variant	effect of a mutation on the interaction
MAVNVYSTSVTSDNLSRHDMLAWINESLQLNLTKIEQLCSGAAYCQFMDMLFPGSVALKKVKFQAKLEHEYIQNFKILQAGFKRMGVDKIIPVDKLVKGKFQDNFEFVQWFKKFFDANYDGKDYDPVAARQGQETAVAPSLVAPALNKPKKPLTSSSAAPQRPISTQRTAAAPKAGPGVVRKNPGVGNGDDEAAELMQQVNVLKLTVEDLEKERDFYFGKLRNIELICQENEGENDPVLQRIVDILYATDEGFVIPDEGGPQEEQEEY [I56V]	with no effect
MAVNVYSTSVTSDNLSRHDMLAWINESLQLNLTKIEQLCSGAAYCQFMDMLFPGSIALKKVKFQAKLEHEYIQNFKILQAGFKRMGVDKIIPVDKLVKGKFQDNFEFVQWFKKFFDANYDGKDYDPVAARQGQETAVAPSLVAPALNKPKKPLTSSSAAPQRPISTQRTAAAPKAGPGVVRKNPGVGNGDDEAAELMQQVSVLKLTVEDLEKERDFYFGKLRNIELICQENEGENDPVLQRIVDILYATDEGFVIPDEGGPQEEQEEY [N201S]	with no effect
